Laboratory results as given in patent US20240165165A1, “PHARMACEUTICAL COMPOSITIONS AND THEIR METHODS OF USE” (The Trustees of Indiana University, priority 2021, published 2024).

Assays:
[1] = tested on: EO771 cells; experiment: Western blot of proteins in treated tumor cells; format: cell-based, mouse
Experimental: Western blot analysis and mass spectrometry. Western blot analysis was conducted using known procedures. Antibodies were used against ANXA1, β-catenin, caspase 3, Lrp5, Lrp6, Runx2, Sclerostin, Snail, TGFβ, NFATc1, cathepsin K (Cell Signaling, Danvers, MA, USA), DMP1, ANXA6, CXCL5 (Abcam, Cambridge, MA, USA), M-CSF, MMP9, OPN, TPM4 (Santa Cruz, Dallas, TX, USA), WISP1 (R&D systems, Minneapolis, MN, USA), β-actin (Sigma, Saint Louis, MO, USA), LIMA1, Trail (Novus, Centennial, CO, USA), p53 and CXCL1 (Invitrogen, Carlsbad, California, USA), and DSP (ProteinTech, Rosemont, IL, USA). The expression levels of Sclerostin and Lrp5 in CM were detected by ELISA (My BioSource, San Diego, CA, USA). Proteins from A5 osteocyte CM, Y4 osteocyte CM, and osteoclast control CM (RAW264.7 cells) were analyzed by the HF Hybrid Quadrupole Orbitrap mass spectrometry. Among 549 identified proteins, 49 proteins presented higher expression levels in A5 CM than Y4 CM and control CM. Among them, 11 proteins (p53; SPARC=osteonectin; TPM1, TPM4=tropomyosin 1 & 4; ANXA1, ANXA6=annexin A1 & A6; FMOD=fibromodulin; OGN=osteoglycin; DSP=desmoplakin; AHNAK=desmoyokin; and LIMA1=[…] domain actin-binding protein 1) were identified as potential tumor suppressors.
(§1) Western blot analysis and protein array analysis. Western blot analysis was conducted using the procedure previously described. Antibodies against Lrp5, Runx2, Snail, TGFβ, sclerostin, Calr, p-eIF2α, eIF2α (Cell Signaling, Danvers, MA, USA), LIF, Trail (Novus Biologicals, Centennial, CO, USA), MMP9, NFATc1, cathepsin K (Santa Cruz Biotechnology, Dallas, TX, USA), p53, CXCL2, Ppib (Invitrogen, Carlsbad, CA, USA), Hsp90ab1 (Abcam, Cambridge, UK), and β-actin (Sigma, Saint Louis, MO, USA) were used. A proteome profiler mouse XL cytokine array kit (R&D Systems, Minneapolis, MN, USA) was also employed, and the expression of 111 cytokines and chemokines in MSC-derived CM was determined.
Spheroid assay, plasmid transfection, and Western blot analysis. […]

[2] = tested on: 4T1.2 mammary tumor cells; experiment: MTT viability assay; format: cell-based, mouse
Description: (§2) In vitro assays. Cellular viability was examined using an MTT assay (Invitrogen, Carlsbad, CA, USA) with the procedure previously described, as well as an EdU assay with a fluorescence-based cell proliferation kit (Thermo-Fisher, Waltham, MA, USA). The recombinant proteins employed included Filamin A, Pkm, Pdia3, Tpm4, Anxa2, Eef1a1, Cts1, Nme2, Dcn, Calr, Aldoa, Calm1, Tpm3, Ppib, Myh9, Ywhae, Hspa5, Hsp90aa1 (MBS962910, MBS8249600, MBS2010131, MBS145304, MBS2009095, MBS2033168, MBS143355, MBS145412, MBS2557309, MBS2009125, MBS8248528, MBS2018713, MBS144696, MBS2009092, MBS717396, MBS143242, MBS806904, MBS142709; MyBioSource, San Diego, CA, USA), Actin Gamma 1, Actn4, Hspa8, Vimentin (H00000071-P01, H00000081-P01, NBP1-30278, NBP2-35139; Novus, Littleton, CO, USA), and Hsp90ab1 (OPCA05157; Aviva system biology, San Diego, CA, USA). A TRANSWELL® chamber assay was conducted to detect invasive cellular motility, and a wound-healing scratch assay was utilized to evaluate 2-dimensional migratory behavior. The overexpression of Akt, Lrp5, β-catenin, Snail, Calr, and Ppib was conducted by transfecting plasmids (#10841, #115907, #31785, #31697, #51161, #36123; Addgene, Cambridge, MA, USA). […]

[3] = tested on: 4T1.2 mammary tumor cells; experiment: TRANSWELL invasion assay; format: cell-based, mouse
Description: as §2

[4] = tested on: tumor cells (MDA-MB-231, 4T1.2, EO771) vs non-tumor cells (MSCs, MLO-A5 osteocytes); experiment: MTT-based tumor selectivity (MSC CMs, Calr, Ppib); format: cell-based; settings: (reduction in MTT viability of tumor cells)/(reduction in non-tumor cells)
Experimental: Tumor-selective inhibition by MSC CMs and Calr. […] The inhibitory ratio was defined sing MTT-based viability as (reduction in MTT-based viability of tumor cells)/(reduction in MTT-based viability of non-tumor cells). […] Using three tumor cells (MDA-MB-231, 4T1.2, and EO771) and two non-tumor cells (MSCs, and MLO-A5 osteocytes), tumor selectivity for Lrp5 CM, Akt CM, Calr, and Ppib (FIG. 22) was determined. […] Akt CM also presented the tumor selectivity of 2.41±0.70.

[5] = tested on: 4T1.2 mammary tumor cells; experiment: EdU proliferation assay; format: cell-based, mouse
Experimental: EdU assay. Approximately 2,000 cells were seeded in 96-well plates on day 1. CM was added on day 2 and cellular proliferation was examined using a fluorescence-based cell proliferation kit (CLICK-IT™ EDU ALEXA FLUOR™ 488 Imaging Kit; Thermo-Fisher, Waltham, MA, USA) on day 4. After fluorescent labeling, the number of fluorescently labeled cells was counted and the ratio to the total number of cells was determined.
as §2, with “USA).” for “USA). A TRANSWELL® chamber assay was conducted to detect invasive cellular motility, and a wound-healing scratch assay was utilized to evaluate 2-dimensional migratory behavior. The overexpression of Akt, Lrp5, β-catenin, Snail, Calr, and Ppib was conducted by transfecting plasmids (#10841, #115907, #31785, #31697, #51161, #36123; Addgene, Cambridge, MA, USA).”

[6] = tested on: 4T1.2 cells; experiment: Western blot of proteins in treated tumor cells; format: cell-based, mouse
Experimental: as §1

B1: CXCL5: chemokine applied to EO771 cells (protein, UniProt P50228 41-132, looked up)
C-X-C motif chemokine 5: APSSVIAATELRCVCLTVTPKINPKLIANLEVIPAGPQCPTVEVIAKLKNQKEVCLDPEAPVIKKIIQKILGSDKKKAKRNALAVERTASVQ
tumor-promoting/tumorigenic proteins (Lrp5, MMP9, Runx2, TGFβ, Snail, IL1β etc.) in EO771 cells [1]: increased

B2: ANXA6: annexin A6 (protein, UniProt P14824 2-673, looked up)
Annexin A6: AKIAQGAMYRGSVHDFPEFDANQDAEALYTAMKGFGSDKESILELITSRSNKQRQEICQNYKSLYGKDLIEDLKYELTGKFERLIVNLMRPLAYCDAKEIKDAISGVGTDEKCLIEILASRTNEQMHQLVAAYKDAYERDLESDIIGDTSGHFQKMLVVLLQGTRENDDVVSEDLVQQDVQDLYEAGELKWGTDEAQFIYILGNRSKQHLRLVFDEYLKTTGKPIEASIRGELSGDFEKLMLAVVKCIRSTPEYFAERLFKAMKGLGTRDNTLIRIMVSRSELDMLDIREIFRTKYEKSLYSMIKNDTSGEYKKALLKLCGGDDDAAGQFFPEAAQVAYQMWELSAVSRVELKGTVCAANDFNPDADAKALRKAMKGIGTDEATIIDIVTHRSNAQRQQIRQTFKSHFGRDLMADLKSEISGDLARLILGLMMPPAHYDAKQLKKAMEGAGTDEKTLIEILATRTNAEIRAINEAYKEDYHKSLEDALSSDTSGHFRRILISLATGNREEGGENRDQAQEDAQVAAEILEIADTPSGDKTSLETRFMTVLCTRSYPHLRRVFQEFIKKTNYDIEHVIKKEMSGDVKDAFVAIVQSVKNKPLFFADKLYKSMKGAGTDEKTLTRVMVSRSEIDLLNIRREFIEKYDKSLHQAIEGDTSGDFMKALLALCGGED
tumor-promoting/tumorigenic proteins (Lrp5, MMP9, Runx2, TGFβ, Snail, IL1β etc.) in EO771 cells [1]: reduced

B3: HSF1: HSF1 recombinant proteins (protein, UniProt P38532 1-525, looked up)
Heat shock factor protein 1: MDLAVGPGAAGPSNVPAFLTKLWTLVSDPDTDALICWSPSGNSFHVFDQGQFAKEVLPKYFKHNNMASFVRQLNMYGFRKVVHIEQGGLVKPERDDTEFQHPCFLRGQEQLLENIKRKVTSVSTLKSEDIKIRQDSVTRLLTDVQLMKGKQECMDSKLLAMKHENEALWREVASLRQKHAQQQKVVNKLIQFLISLVQSNRILGVKRKIPLMLSDSNSAHSVPKYGRQYSLEHVHGPGPYSAPSPAYSSSSLYSSDAVTSSGPIISDITELAPTSPLASPGRSIDERPLSSSTLVRVKQEPPSPPHSPRVLEASPGRPSSMDTPLSPTAFIDSILRESEPTPAASNTAPMDTTGAQAPALPTPSTPEKCLSVACLDKNELSDHLDAMDSNLDNLQTMLTSHGFSVDTSALLDLFSPSVTMPDMSLPDLDSSLASIQELLSPQEPPRPIEAENSNPDSGKQLVHYTAQPLFLLDPDAVDTGSSELPVLFELGESSYFSEGDDYTDDPTISLLTGTEPHKAKDPTVS
MTT-based viability of 4T1.2 cells [2]: reduced

B4: Calr: recombinant calreticulin (protein, UniProt P14211 18-416, looked up)
Calreticulin: DPAIYFKEQFLDGDAWTNRWVESKHKSDFGKFVLSSGKFYGDLEKDKGLQTSQDARFYALSAKFEPFSNKGQTLVVQFTVKHEQNIDCGGGYVKLFPSGLDQKDMHGDSEYNIMFGPDICGPGTKKVHVIFNYKGKNVLINKDIRCKDDEFTHLYTLIVRPDNTYEVKIDNSQVESGSLEDDWDFLPPKKIKDPDAAKPEDWDERAKIDDPTDSKPEDWDKPEHIPDPDAKKPEDWDEEMDGEWEPPVIQNPEYKGEWKPRQIDNPDYKGTWIHPEIDNPEYSPDANIYAYDSFAVLGLDLWQVKSGTIFDNFLITNDEAYAEEFGNETWGVTKAAEKQMKDKQDEEQRLKEEEEDKKRKEEEEAEDKEDDDDRDEDEDEEDEKEEDEEESPGQAKDEL
TRANSWELL invasion of 4T1.2 cells [3]: significantly inhibited | MTT-based viability of 4T1.2 cells [2]: Significant reduction | tumor selectivity [4]: higher tumor selectivity than Ppib | EdU-based proliferation of 4T1.2 cells [5]: significantly inhibited | phosphorylation level of eIF2α in 4T1.2 cells [6]: elevated | tumor-promoting genes (Lrp5, MMP9, Runx2, TGFβ, Snail) in 4T1.2 cells ([6]; Western blot): suppressed
